Tests used:
Assay in all cases: BioID-MS +ONC201
ABHD10 (human) = ABHD10 (human) (UniProt Q9NUJ1)
ACAD9 (human) = ACAD9 (human) (UniProt Q9H845)
ACSS1 (human) = ACSS1 (human) (UniProt Q9NUB1)
AK3 (human) = AK3 (human) (UniProt Q9UIJ7)
ALDH2 (human) = ALDH2 (human) (UniProt P05091)
ATPAF1 (human) = ATPAF1 (human) (UniProt Q5TC12)
DCAKD (human) = DCAKD (human) (UniProt Q8WVC6)
DHTKD1 (human) = DHTKD1 (human) (UniProt Q96HY7)
ECHS1 (human) = ECHS1 (human) (UniProt P30084)
ECSIT (human) = ECSIT (human) (UniProt Q9BQ95)
FASTKD2 (human) = FASTKD2 (human) (UniProt Q9NYY8)
FECH (human) = FECH (human) (UniProt P22830)
GATB (human) = GATB (human) (UniProt O75879)
GLRX5 (human) = GLRX5 (human) (UniProt Q86SX6)
Chain of GLRX5 (human) (Q86SX6 32-157 limits assumed): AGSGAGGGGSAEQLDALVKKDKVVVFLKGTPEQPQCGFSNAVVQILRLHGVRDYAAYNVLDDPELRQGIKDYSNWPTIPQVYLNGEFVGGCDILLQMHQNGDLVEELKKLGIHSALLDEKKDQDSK

GUF1 (human) = GUF1 (human) (UniProt Q8N442)
HADH (human) = HADH (human) (UniProt Q16836)
Chain of HADH (human) (Q16836 13-314 limits assumed): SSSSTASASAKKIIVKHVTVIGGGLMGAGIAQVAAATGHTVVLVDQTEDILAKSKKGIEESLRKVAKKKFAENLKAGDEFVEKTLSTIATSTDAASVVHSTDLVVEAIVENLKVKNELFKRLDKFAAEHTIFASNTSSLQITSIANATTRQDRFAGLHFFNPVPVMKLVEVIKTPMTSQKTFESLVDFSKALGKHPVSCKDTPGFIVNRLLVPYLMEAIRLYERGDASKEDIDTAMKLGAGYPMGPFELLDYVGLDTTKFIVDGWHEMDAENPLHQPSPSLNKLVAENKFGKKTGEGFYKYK

IDH3A (human) = IDH3A (human) (UniProt P50213)
Chain of IDH3A (human) (P50213 28-366 limits assumed): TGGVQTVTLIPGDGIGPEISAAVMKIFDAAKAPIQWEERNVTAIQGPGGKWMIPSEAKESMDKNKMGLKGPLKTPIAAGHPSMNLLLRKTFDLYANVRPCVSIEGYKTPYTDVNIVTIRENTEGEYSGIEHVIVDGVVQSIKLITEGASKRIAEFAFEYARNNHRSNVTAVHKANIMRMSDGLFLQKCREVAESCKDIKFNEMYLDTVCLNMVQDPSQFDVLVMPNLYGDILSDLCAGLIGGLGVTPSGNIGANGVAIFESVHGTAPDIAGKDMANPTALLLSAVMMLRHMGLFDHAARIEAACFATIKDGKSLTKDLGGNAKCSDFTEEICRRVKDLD

K1AA0564 (human) = K1AA0564 (human) (UniProt A3KMH1)
LARS2 (human) = LARS2 (human) (UniProt Q15031)
LETM1 (human) = LETM1 (human) (UniProt O95202)
MARS2 (human) = MARS2 (human) (UniProt Q96GW9)
Chain of MARS2 (human) (Q96GW9 30-593 limits assumed): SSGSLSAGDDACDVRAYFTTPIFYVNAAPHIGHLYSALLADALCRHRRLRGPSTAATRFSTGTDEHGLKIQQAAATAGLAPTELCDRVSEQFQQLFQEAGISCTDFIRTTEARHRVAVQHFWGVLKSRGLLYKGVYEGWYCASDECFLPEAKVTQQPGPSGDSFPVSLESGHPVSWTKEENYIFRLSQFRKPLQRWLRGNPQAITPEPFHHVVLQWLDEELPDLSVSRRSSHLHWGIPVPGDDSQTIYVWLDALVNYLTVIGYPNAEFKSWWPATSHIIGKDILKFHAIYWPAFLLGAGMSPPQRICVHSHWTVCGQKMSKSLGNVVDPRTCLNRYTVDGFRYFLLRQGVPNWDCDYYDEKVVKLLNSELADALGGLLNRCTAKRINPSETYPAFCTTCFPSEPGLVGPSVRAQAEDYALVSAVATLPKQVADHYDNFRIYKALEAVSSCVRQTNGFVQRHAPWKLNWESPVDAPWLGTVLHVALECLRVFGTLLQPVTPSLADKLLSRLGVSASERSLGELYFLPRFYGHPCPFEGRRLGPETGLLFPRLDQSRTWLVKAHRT

MMAB (human) = MMAB (human) (UniProt Q96EY8)
Chain of MMAB (human) (Q96EY8 33-250 limits assumed): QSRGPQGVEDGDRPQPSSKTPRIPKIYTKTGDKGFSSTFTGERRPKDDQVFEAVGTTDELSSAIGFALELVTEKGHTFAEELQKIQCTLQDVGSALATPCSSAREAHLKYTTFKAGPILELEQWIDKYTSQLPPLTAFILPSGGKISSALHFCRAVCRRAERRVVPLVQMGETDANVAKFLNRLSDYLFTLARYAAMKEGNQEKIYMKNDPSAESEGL

MPST (human) = MPST (human) (UniProt P25325)
MRPL12 (human) = MRPL12 (human) (UniProt P52815)
MRPL14 (human) = MRPL14 (human) (UniProt Q6P1L8)
MRPL40 (human) = MRPL40 (human) (UniProt Q9NQ50)
MRPL45 (human) = MRPL45 (human) (UniProt Q9BRJ2)
MRPL48 (human) = MRPL48 (human) (UniProt Q96GC5)
MRPL55 (human) = MRPL55 (human) (UniProt Q7Z7F7)
MRPS26 (human) = MRPS26 (human) (UniProt Q9BYN8)
MRPS28 (human) = MRPS28 (human) (UniProt Q9Y2Q9)
MRRF (human) = MRRF (human) (UniProt Q96E11)
MTIF2 (human) = MTIF2 (human) (UniProt P46199)
Chain of MTIF2 (human) (P46199 30-727 limits assumed): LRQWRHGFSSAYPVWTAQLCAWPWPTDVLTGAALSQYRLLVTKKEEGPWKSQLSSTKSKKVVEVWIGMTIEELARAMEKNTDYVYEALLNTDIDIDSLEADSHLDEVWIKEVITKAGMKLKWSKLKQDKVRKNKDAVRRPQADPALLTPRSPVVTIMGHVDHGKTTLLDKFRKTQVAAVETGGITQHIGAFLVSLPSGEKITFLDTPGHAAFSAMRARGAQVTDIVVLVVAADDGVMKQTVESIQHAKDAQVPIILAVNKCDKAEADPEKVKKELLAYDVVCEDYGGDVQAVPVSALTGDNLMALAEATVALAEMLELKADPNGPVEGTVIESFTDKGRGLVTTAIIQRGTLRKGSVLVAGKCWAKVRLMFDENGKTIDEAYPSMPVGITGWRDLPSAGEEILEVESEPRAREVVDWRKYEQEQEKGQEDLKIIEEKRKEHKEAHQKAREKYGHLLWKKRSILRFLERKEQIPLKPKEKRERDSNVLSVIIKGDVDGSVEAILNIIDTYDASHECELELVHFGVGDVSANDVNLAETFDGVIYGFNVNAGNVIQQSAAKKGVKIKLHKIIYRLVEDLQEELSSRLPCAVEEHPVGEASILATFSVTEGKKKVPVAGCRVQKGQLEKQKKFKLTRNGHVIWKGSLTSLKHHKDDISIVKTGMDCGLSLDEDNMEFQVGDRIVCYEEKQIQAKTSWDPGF

MTPAP (human) = MTPAP (human) (UniProt Q9NVV4)
Chain of MTPAP (human) (Q9NVV4 38-582 limits assumed): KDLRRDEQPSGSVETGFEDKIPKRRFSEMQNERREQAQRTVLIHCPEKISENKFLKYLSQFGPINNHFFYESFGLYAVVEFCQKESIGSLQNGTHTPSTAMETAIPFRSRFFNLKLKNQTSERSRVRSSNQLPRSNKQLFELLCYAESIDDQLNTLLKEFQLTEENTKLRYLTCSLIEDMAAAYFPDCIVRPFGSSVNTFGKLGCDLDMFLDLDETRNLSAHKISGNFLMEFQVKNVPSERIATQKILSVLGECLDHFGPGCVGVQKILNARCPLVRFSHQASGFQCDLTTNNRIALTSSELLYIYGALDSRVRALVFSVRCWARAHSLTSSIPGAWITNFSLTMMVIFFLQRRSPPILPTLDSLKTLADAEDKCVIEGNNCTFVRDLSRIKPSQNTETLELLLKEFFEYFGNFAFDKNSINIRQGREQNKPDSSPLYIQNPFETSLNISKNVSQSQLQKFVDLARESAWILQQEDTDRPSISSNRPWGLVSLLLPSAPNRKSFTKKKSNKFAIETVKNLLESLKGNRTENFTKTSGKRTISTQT

NADK2 (human) = NADK2 (human) (UniProt Q4G0N4)
NADKD1 (human) = NADKD1 (human) (UniProt Q4G0N4)
NARS2 (human) = NARS2 (human) (UniProt Q96I59)
NDUFAF4 (human) = NDUFAF4 (human) (UniProt Q9P032)
Chain of NDUFAF4 (human) (Q9P032 2-175 limits assumed): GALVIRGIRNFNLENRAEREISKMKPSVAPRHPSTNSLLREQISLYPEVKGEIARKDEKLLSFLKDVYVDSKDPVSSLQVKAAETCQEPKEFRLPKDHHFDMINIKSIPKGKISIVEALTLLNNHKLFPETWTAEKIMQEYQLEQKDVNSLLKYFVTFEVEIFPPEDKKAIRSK

NDUFS2 (human) = NDUFS2 (human) (UniProt O75306)
NDUFS7 (human) = NDUFS7 (human) (UniProt O75251)
Chain of NDUFS7 (human) (O75251 39-213 limits assumed): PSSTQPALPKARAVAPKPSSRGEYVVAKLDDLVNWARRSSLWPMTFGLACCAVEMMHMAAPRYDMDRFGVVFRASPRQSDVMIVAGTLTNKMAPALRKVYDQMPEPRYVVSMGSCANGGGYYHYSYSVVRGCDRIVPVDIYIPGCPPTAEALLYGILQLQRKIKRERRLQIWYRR

NME4 (human) = NME4 (human) (UniProt O00746)
NUDT1 (human) = NUDT1 (human) (UniProt P36639)
OXA1L (human) = OXA1L (human) (UniProt Q15070)
PET112 (human) = PET112 (human) (UniProt O75879)
POLG2 (human) = POLG2 (human) (UniProt Q9UHN1)
QRSL1 (human) = QRSL1 (human) (UniProt Q9H0R6)
RNMTL1 (human) = RNMTL1 (human) (UniProt Q9HC36)
RPS15A (human) = RPS15A (human) (UniProt P62244)
SUCLG1 (human) = SUCLG1 (human) (UniProt P53597)
Chain of SUCLG1 (human) (P53597 41-346 limits assumed): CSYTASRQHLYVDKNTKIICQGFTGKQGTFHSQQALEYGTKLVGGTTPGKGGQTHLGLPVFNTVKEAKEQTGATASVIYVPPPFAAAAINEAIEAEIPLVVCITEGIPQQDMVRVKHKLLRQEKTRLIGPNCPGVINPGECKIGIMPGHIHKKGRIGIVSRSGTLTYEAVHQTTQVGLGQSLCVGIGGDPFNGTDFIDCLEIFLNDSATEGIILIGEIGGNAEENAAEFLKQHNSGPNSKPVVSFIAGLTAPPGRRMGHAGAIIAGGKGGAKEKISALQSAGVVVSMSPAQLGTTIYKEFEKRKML

TST (human) = TST (human) (UniProt Q16762)
Chain of TST (human) (Q16762 2-297 limits assumed): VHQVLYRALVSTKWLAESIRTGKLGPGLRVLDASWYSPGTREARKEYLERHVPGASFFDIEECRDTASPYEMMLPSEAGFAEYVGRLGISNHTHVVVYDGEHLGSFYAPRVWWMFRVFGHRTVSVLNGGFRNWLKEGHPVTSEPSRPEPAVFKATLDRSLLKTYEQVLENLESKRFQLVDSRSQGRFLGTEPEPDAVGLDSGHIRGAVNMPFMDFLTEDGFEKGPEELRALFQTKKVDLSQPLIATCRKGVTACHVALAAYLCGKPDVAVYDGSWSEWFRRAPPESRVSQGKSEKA

VWA8 (human) = VWA8 (human) (UniProt A3KMH1)

Chain of ATPAF1 (human) (Q5TC12 58-328 limits assumed): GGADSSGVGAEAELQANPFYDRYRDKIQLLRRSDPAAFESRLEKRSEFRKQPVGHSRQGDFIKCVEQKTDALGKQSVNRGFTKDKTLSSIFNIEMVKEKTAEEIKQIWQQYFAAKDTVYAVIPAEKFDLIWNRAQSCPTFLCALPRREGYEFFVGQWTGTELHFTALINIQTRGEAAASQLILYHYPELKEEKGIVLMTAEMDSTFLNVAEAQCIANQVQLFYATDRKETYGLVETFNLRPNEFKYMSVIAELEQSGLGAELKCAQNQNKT
Chain of ACAD9 (human) (Q9H845 38-621 limits assumed): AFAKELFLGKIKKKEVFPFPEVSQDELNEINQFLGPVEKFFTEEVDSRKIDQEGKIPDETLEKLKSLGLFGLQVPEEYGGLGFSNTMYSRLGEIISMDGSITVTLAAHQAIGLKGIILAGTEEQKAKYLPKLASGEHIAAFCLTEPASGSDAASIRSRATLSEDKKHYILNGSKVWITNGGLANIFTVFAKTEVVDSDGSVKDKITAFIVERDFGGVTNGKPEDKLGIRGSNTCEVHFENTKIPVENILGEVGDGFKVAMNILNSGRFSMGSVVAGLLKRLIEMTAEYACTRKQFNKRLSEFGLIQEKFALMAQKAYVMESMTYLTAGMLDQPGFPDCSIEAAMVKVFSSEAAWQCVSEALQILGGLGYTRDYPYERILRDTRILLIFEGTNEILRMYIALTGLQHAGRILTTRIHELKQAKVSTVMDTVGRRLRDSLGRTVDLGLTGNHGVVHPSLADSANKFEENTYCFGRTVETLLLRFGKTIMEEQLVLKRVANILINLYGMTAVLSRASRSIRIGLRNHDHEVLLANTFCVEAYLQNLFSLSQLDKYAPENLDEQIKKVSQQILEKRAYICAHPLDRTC
Chain of ECHS1 (human) (P30084 28-290 limits assumed): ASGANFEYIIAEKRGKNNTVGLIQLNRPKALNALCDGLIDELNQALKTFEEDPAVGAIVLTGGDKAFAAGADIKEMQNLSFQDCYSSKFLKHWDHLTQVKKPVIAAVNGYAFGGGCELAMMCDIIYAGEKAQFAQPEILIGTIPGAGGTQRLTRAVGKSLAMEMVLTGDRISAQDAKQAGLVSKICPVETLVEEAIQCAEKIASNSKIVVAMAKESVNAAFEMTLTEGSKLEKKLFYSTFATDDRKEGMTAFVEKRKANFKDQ

**Q.** What does the source list for “FlagBirA-ClpP (WT) (from UniProt P06709 1-321; Q16740 57-277) (enzyme)”?
**A.** Log2 Fold change (vs control) (ABHD10 (human)): -1.53 log2; Log2 Fold change (vs control) (ACAD9 (human)): -0.76 log2; Log2 Fold change (vs control) (ACSS1 (human)): -4.46 log2; Log2 Fold change (vs control) (AK3 (human)): -1.05 log2; Log2 Fold change (vs control) (ALDH2 (human)): -0.17 log2; Log2 Fold change (vs control) (ATPAF1 (human)): -2.17 log2; Log2 Fold change (vs control) (DCAKD (human)): -3.75 log2; Log2 Fold change (vs control) (DHTKD1 (human)): -5.25 log2; Log2 Fold change (vs control) (ECHS1 (human)): -1.49 log2; Log2 Fold change (vs control) (ECSIT (human)): -5.36 log2; Log2 Fold change (vs control) (FASTKD2 (human)): -0.62 log2; Log2 Fold change (vs control) (FECH (human)): -1.56 log2; Log2 Fold change (vs control) (GATB (human)): -1.84 log2; Log2 Fold change (vs control) (GLRX5 (human)): -5.21 log2; Log2 Fold change (vs control) (GUF1 (human)): -4.04 log2; Log2 Fold change (vs control) (HADH (human)): -1.3 log2; Log2 Fold change (vs control) (IDH3A (human)): -2 log2; Log2 Fold change (vs control) (K1AA0564 (human)): -0.71 log2; Log2 Fold change (vs control) (LARS2 (human)): -0.14 log2; Log2 Fold change (vs control) (LETM1 (human)): -0.94 log2; Log2 Fold change (vs control) (MARS2 (human)): -4.52 log2; Log2 Fold change (vs control) (MMAB (human)): -0.37 log2; Log2 Fold change (vs control) (MPST (human)): -4.46 log2; Log2 Fold change (vs control) (MRPL12 (human)): -3.32 log2; Log2 Fold change (vs control) (MRPL14 (human)): -3.46 log2; Log2 Fold change (vs control) (MRPL40 (human)): -5.09 log2; Log2 Fold change (vs control) (MRPL45 (human)): -6.44 log2; Log2 Fold change (vs control) (MRPL48 (human)): -4.17 log2; Log2 Fold change (vs control) (MRPL55 (human)): -5.25 log2; Log2 Fold change (vs control) (MRPS26 (human)): -6.38 log2; Log2 Fold change (vs control) (MRPS28 (human)): -1.24 log2; Log2 Fold change (vs control) (MRRF (human)): -5.49 log2; Log2 Fold change (vs control) (MTIF2 (human)): -5.55 log2; Log2 Fold change (vs control) (MTPAP (human)): -0.1 log2; Log2 Fold change (vs control) (NADK2 (human)): -4.24 log2; Log2 Fold change (vs control) (NADKD1 (human)): -2.04 log2; Log2 Fold change (vs control) (NARS2 (human)): -1.36 log2; Log2 Fold change (vs control) (NDUFAF4 (human)): -1.11 log2; Log2 Fold change (vs control) (NDUFS2 (human)): -2.44 log2; Log2 Fold change (vs control) (NDUFS7 (human)): -1.81 log2; Log2 Fold change (vs control) (NME4 (human)): -1.16 log2; Log2 Fold change (vs control) (NUDT1 (human)): -1 log2; Log2 Fold change (vs control) (OXA1L (human)): -3 log2; Log2 Fold change (vs control) (PET112 (human)): -3.03 log2; Log2 Fold change (vs control) (POLG2 (human)): -5.29 log2; Log2 Fold change (vs control) (QRSL1 (human)): -2.9 log2; Log2 Fold change (vs control) (RNMTL1 (human)): 0.05 log2; Log2 Fold change (vs control) (RPS15A (human)): -0.69 log2; Log2 Fold change (vs control) (SUCLG1 (human)): -1.44 log2; Log2 Fold change (vs control) (TST (human)): -5.55 log2; Log2 Fold change (vs control) (VWA8 (human)): 1.69 log2

— patent US20220143024A1, “METHODS OF USING IMIPRIDONES” (Board of Regents, The University of Texas System, priority 2019, published 2022)
